In patent US20240392262A1, “TRANSPOSASE AND USES THEREOF” (Poseida Therapeutics, Inc., published 2024):

Tests used:
GFP1 Right NT-G TAL-PBx = target: T1, GFP1 Right NT-G TAL-PBx (synthetic construct); assay: cell_activity; settings: tags: 3xFlag, SV40 NLS; chain copies: 2
T1 chain: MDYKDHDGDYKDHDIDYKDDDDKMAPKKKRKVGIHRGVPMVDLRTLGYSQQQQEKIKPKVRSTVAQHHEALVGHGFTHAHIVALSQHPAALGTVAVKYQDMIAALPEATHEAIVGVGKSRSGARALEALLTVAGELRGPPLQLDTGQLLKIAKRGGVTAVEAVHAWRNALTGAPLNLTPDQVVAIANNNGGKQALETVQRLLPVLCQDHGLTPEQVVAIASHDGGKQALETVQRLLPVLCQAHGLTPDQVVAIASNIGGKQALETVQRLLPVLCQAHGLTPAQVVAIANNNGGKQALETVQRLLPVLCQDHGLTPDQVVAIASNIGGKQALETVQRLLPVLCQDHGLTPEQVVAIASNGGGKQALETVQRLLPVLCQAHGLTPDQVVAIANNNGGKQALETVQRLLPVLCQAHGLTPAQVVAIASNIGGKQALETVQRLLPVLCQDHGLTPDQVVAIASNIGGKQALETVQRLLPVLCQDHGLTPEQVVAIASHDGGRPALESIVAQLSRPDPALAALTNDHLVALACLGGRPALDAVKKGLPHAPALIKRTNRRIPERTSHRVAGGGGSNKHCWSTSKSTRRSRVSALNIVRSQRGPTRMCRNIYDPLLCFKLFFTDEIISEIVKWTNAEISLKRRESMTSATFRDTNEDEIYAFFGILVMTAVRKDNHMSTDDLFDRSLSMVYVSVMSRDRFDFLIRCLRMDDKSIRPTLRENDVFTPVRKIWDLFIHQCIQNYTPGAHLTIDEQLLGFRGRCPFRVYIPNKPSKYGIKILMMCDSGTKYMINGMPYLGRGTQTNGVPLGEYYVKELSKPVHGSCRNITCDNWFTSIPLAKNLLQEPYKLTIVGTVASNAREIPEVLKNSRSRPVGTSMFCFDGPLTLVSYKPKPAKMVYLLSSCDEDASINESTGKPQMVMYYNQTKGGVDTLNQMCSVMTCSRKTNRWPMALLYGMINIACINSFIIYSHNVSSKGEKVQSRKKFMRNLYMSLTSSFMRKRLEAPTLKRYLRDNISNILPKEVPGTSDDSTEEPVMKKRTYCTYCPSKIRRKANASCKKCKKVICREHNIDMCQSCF

[1] = target: T2, GFP1 Right NT-betaN TAL-PBx (synthetic construct); assay: cell_activity; settings: tags: 3xFlag, SV40 NLS; chain copies: 2
T2 chain: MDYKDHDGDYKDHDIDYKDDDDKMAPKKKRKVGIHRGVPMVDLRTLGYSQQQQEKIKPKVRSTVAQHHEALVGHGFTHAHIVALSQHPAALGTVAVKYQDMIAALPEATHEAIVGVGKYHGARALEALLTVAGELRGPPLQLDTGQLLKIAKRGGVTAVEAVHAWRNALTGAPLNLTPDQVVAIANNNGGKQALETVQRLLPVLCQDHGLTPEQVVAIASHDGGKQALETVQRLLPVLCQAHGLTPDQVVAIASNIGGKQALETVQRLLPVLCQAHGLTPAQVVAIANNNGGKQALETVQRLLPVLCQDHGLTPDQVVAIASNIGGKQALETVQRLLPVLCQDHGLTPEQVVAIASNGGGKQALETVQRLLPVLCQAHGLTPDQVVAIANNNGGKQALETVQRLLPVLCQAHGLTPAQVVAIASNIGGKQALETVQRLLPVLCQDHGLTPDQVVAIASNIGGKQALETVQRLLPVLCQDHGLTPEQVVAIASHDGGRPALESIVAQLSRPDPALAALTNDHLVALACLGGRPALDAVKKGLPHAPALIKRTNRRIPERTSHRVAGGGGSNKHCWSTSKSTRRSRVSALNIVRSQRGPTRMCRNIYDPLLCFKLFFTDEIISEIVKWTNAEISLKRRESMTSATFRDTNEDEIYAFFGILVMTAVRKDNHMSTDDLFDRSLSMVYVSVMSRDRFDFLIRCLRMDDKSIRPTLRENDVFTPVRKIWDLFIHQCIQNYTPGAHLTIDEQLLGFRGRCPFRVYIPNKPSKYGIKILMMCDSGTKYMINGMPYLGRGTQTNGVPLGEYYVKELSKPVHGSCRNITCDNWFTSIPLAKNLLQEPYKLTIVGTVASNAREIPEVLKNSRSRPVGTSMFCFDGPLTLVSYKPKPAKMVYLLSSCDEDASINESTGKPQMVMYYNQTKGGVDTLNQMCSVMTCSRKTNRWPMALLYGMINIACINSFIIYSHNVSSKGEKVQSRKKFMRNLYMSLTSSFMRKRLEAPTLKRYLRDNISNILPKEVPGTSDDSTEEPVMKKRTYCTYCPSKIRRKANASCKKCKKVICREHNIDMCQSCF

GFP1 Right TALEN = target: T3, GFP1 Right TALEN (synthetic construct); assay: cell_activity; SSA; settings: tags: 3xFlag, SV40 NLS, FokI fusion; chain copies: 2
T3 chain: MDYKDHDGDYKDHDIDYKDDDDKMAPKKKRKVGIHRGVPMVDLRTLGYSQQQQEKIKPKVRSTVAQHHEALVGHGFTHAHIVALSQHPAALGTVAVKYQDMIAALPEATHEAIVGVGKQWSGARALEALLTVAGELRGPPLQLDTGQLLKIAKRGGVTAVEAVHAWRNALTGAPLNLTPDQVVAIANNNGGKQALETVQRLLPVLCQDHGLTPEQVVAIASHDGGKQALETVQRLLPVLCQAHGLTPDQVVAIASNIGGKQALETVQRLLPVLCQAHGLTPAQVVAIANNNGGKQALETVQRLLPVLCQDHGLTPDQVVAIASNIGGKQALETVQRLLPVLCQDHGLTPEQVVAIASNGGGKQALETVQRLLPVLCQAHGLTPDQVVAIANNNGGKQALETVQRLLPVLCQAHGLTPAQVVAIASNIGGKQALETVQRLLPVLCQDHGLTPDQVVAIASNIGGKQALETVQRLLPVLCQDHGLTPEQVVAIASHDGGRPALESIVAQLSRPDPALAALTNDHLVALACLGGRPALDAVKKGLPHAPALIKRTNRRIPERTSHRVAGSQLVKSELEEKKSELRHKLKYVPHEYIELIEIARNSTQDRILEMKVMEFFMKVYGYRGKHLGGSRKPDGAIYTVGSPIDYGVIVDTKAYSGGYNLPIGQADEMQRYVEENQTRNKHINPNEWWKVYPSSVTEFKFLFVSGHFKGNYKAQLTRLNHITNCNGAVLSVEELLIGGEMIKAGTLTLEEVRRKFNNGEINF
Experimental: (§1) The TALEN NT-G and NT-ON designs were tested using the single strand annealing reporter (Example 17). The target site corresponding to the GFP1 Right TALEN (SEQ ID NO: 288) was modified to replace T 5′ of the target sites with either an A, a C, or a G to create SEQ ID NOs: 403-405). A transfection mixture containing 90 ng of each TALEN, 10 ng of the corresponding reporter and 1.5p of Transit-2020 transfection reagent in a total volume of 20 μl of Serum Free OptiMem medium were assembled. A TALEN or a reporter were transfected alone as negative controls. An aliquot of 30,000 HEK293T cells in 180 μl of DMEM medium supplemented with 10% FBS was added and the transfection mixture was plated in 96 well plates and incubated for one day at 37° C. at 5% CO2. The following day, a lysis buffer was added to the cells and the lysate was transferred to a white 96 well plate. A buffer containing substrate for Firefly luciferase was mixed with the cells and luciferase luminescence was detected using a plate reader.

GFP1 Right TALEN NT-G = target: T4, GFP1 Right TALEN NT-G (synthetic construct); assay: cell_activity; SSA; settings: tags: 3xFlag, SV40 NLS, FokI fusion; chain copies: 2
T4 chain: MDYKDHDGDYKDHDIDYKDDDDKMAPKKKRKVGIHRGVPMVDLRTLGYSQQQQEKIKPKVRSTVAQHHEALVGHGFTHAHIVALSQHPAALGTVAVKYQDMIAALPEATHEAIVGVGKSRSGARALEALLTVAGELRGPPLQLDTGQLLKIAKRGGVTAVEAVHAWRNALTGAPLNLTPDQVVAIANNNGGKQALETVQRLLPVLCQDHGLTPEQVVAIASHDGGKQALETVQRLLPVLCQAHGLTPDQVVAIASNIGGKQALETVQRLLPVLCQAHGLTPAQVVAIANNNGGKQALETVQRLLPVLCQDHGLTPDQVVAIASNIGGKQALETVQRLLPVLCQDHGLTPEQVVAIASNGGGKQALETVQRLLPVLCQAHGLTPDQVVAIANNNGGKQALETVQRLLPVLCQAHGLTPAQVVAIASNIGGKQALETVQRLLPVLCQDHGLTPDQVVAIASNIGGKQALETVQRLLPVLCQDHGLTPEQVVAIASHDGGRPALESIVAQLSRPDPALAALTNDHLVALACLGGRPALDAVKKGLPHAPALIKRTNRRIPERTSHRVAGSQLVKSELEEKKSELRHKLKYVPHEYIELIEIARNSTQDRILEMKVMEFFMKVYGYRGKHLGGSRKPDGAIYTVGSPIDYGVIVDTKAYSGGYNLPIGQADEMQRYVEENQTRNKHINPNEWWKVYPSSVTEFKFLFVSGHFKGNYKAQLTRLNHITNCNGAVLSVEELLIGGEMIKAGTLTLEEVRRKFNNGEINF
Experimental: as §1

[2] = target: T5, GFP1 Right TALEN NT-betaN (synthetic construct); assay: cell_activity; SSA; settings: tags: 3xFlag, SV40 NLS, FokI fusion; chain copies: 2
T5 chain: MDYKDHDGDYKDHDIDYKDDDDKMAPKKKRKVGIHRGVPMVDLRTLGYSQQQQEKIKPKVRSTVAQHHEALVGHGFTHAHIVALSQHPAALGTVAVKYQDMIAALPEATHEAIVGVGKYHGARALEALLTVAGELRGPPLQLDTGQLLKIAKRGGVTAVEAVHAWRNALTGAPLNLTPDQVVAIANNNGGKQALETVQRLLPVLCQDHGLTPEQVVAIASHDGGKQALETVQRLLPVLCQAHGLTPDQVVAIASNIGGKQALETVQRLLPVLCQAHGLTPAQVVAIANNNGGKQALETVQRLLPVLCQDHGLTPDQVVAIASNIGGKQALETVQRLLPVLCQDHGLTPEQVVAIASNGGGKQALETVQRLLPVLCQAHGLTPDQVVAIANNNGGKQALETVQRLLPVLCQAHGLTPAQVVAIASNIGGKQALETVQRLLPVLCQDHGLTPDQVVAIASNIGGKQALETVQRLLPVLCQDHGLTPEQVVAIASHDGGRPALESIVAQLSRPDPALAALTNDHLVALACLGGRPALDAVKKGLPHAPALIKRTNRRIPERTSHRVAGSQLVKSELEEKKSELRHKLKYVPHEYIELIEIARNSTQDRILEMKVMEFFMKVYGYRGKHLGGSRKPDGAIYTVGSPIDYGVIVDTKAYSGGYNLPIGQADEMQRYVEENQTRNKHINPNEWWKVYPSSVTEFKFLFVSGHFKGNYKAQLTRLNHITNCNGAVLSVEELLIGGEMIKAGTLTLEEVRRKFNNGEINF
Experimental: as §1

B1: GFP1R 13 bp 5'G (dsDNA)
DNA 1: GGCAGATGAACGCAATCTCACGGCTTAACTACTGACCTGAAGTTCATCTGCC
DNA 2: GGCAGATGAACTTCAGGTCAGTAGTTAAGCCGTGAGATTGCGTTCATCTGCC
In the case of B1, the activity (GFP1 Right NT-G TAL-PBx) is reported as 20.4 % GFP+ and the activity [1] is reported as 20.4 % GFP+.

B2: GFP1 R SSA site 5'C (dsDNA)
DNA 1: GGCGCAGATGAACGCAAGCTGACCCTGAAGTTCATCTGCGTT
DNA 2: AACGCAGATGAACTTCAGGGTCAGCTTGCGTTCATCTGCGCC
Binder B2 has an activity (GFP1 Right TALEN) of 419000 RLU, an activity (GFP1 Right TALEN NT-G) of 693000 RLU and an activity [2] of 1.12e+06 RLU.

B3: GFP1 R+R SSA site (dsDNA)
DNA 1: GGTGCAGATGAACGCAAGCTGACCCTGAAGTTCATCTGCATT
DNA 2: AATGCAGATGAACTTCAGGGTCAGCTTGCGTTCATCTGCACC
Work on B3 yielded an activity (GFP1 Right TALEN NT-G) of 1.21e+06 RLU and an activity [2] of 1.45e+06 RLU.

B4: GFP1 R SSA site 5'A (dsDNA)
DNA 1: GGAGCAGATGAACGCAAGCTGACCCTGAAGTTCATCTGCTTT
DNA 2: AAAGCAGATGAACTTCAGGGTCAGCTTGCGTTCATCTGCTCC
With B4 the activity (GFP1 Right TALEN NT-G) was 1.14e+06 RLU and the activity [2] was 1.56e+06 RLU.

B5: GFP1 R SSA site 5'G (dsDNA)
DNA 1: GGGGCAGATGAACGCAAGCTGACCCTGAAGTTCATCTGCCTT
DNA 2: AAGGCAGATGAACTTCAGGGTCAGCTTGCGTTCATCTGCCCC
For B5, the activity (GFP1 Right TALEN) was 294000 RLU, the activity (GFP1 Right TALEN NT-G) was 1.07e+06 RLU and the activity [2] was 1.21e+06 RLU.
